According to the supplement of paper PMC10567573:

B1: GLT8D2 (parent)
chain: QEAKLLHWNGRHKPWDFPSVHNDL
B2: PTPN9 (parent)
chain: NKWTVQYNVSPLSWNVAVKFLMAR

Variants of: B1
Test: protein stability index of a GFP-peptide fusion (GPS, HEK-293T) (PSI 1-6); higher = more stable
Conditions: c terminus: a fixed tail appended
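Also: lentivirally expressed fusions sorted by FACS into six bins by GFP to DsRed ratio, PSI derived from sequencing read proportions per bin multiplied by bin number.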

Protein stability index, by site and new letter:
A3: S 2.69
K4: W 2.7 | N 2.68
D16: R 2.33
K13: V 2.1
L5: V 2.58
P14: A 2.62 | M 2.36 | Y 2.09
L6: Q 2.76
G10: Q 2.7
W15: F 2.88
R11: L 2.34 | C 2.55
F17: D 3.36 | P 3.24
P18: R 2.41

Variants of: B2
Test: as above
Conditions: c terminus: a fixed tail appended

Protein stability index: each site, then its substitutions
P11: N 2.66 | G 2.51 | L 2.59 | H 3.88 | E 2.43 | W 4.3 | A 2.01 | S 4.04
V5: N 1.95 | W 5.45 | T 3.23 | L 2.96 | Q 1.92 | C 1.83 | P 1.94 | S 1.99 | Y 1.67 | G 2.31 | A 2.04 | I 3.45 | E 2.94 | K 3.16 | D 1.76 | H 3.13 | M 3.19
L12: S 1.88 | M 2.17 | Q 1.72 | A 4.28 | W 3.11 | R 4.48 | V 2.89 | P 1.52 | D 3.6 | C 2.9 | H 2.66 | I 2.07
T4: A 2.55 | Q 2.27 | L 1.71 | N 1.81 | M 2.57 | D 2.22 | Y 3.46 | P 1.76
S13: C 3.09 | A 1.35
N1: S 1.54 | W 3.28 | V 2.06 | H 2.3 | F 3.7
Q6: A 1.78 | C 2.98 | E 3.28 | K 3.19 | V 2.79 | S 2.46 | Y 2.07 | R 4.19 | N 2.38 | H 3.77 | T 2.6 | M 2.02 | D 2.28 | F 2.83 | G 1.7 | P 2.54
N8: S 2 | H 2.26 | A 1.49 | D 2.07 | P 1.68 | Y 3.61 | L 2.45 | C 3.2 | R 2.26 | T 2.15
Y7: N 2.14 | M 2.91 | Q 1.75 | P 1.84 | V 3.44 | R 1.14 | A 3.49 | D 1.91 | E 2.17 | K 2.94 | T 1.81 | S 2.84 | G 1.15 | I 2.83 | C 2.47 | F 3.3 | L 2.76 | H 1.68
V9: A 3.1 | G 3.82 | T 2.65 | S 2 | Q 1.43 | K 2.56 | L 2.45 | R 1.55 | P 1.6 | C 3.09 | D 2.06 | I 4.2 | E 1.46 | Y 2.1 | W 2.98
S10: F 2.12 | T 3.21 | H 2.23 | Y 1.82 | M 2.81 | N 2.35 | D 2.26 | C 3.37 | I 1.62 | W 2.48 | A 2.26 | V 3.2
W3: N 1.31 | H 1.02 | S 2.1 | E 1.91 | Q 2.35 | Y 2.57 | T 1.46 | P 1.7 | R 1.97 | F 2.59 | V 2.08 | I 2.66 | G 1.77
K2: C 3.56 | E 3.64 | L 3.54 | Y 2.49 | A 2.25 | Q 2.27 | R 1.66 | I 3.27 | F 1.49 | M 3.14 | W 2.89 | N 1.83 | T 3.13 | D 3.84
